Source: the supplement of paper PMC10567573

B1: BRF1 (parent)
chain: CTACGSVLEDNIIVSEVQFVESSG
B2: TSN (parent)
chain: FLAAEQDIREEIRKVVQSLEQTAR

Variants of: B1
Experiment: protein stability index of a GFP-peptide fusion (GPS, HEK-293T) (PSI 1-6); higher = more stable
Conditions: c terminus: a fixed tail appended
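Further: lentivirally expressed fusions sorted by FACS into six bins by GFP to DsRed ratio, PSI derived from sequencing read proportions per bin multiplied by bin number.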

Protein stability index of substitutions, site by site:
I13: C 4.75, G 3.61, S 4.05, H 3.84, F 3.08, E 4.11, A 3.96, P 4.25, R 3.92, K 3.89, D 3.13, N 3.79, M 3.97, Q 4.01, T 3.56, L 2.79
D10: S 1.34, G 1.84, H 2.67, I 3.2, N 2.55, T 1.79, M 2.94, P 3.44, E 3.38, R 3.89, A 2.41, Q 2.14, Y 2.24, W 1.22, L 3.29, K 3.43
E16: F 2.08, H 3.22, G 3.51, K 3.42, W 1.9, C 3.61, I 3.35, M 3.11, N 2.9, R 3.09, Y 3.77, T 2.2, S 2.38, A 2.66, L 3.15, Q 2.9, P 3.33, V 2.58, D 3.87
S22: N 3.07, K 3.81, L 2.09, W 2.66, F 2.32, R 2.18, D 3.7, C 1.88, P 3.39, M 2.44, V 2.75, E 3.83, H 3.06, I 1.52, G 2.97, Q 3.38, Y 2.38, T 2.33, A 3.73
E9: T 2.55, Y 2, R 3.02, W 1.83, V 2.26, S 2.85
G24: C 3.09, A 3.67, S 3.08, V 2.45, H 2.25, L 3.01, E 3.58, D 3.38, F 2.03, K 3.25, Y 2.89, M 3.13, I 3.06, W 2.09, R 2.64, N 3.01, Q 2.95, P 3.28
F19: C 2.43, Q 3.76, A 5.26, D 4.53, N 4.33, V 3.11, Y 3.49, I 2.87, T 3.98, S 4.59, G 4.32, W 2.88, L 3.49, R 4.42, H 4.36, P 4.2, K 4.19, M 3.63, E 4.27
V20: C 2.21, P 3.48, K 3.44, G 3.6, L 3.97, S 4.23, H 3.23, M 2.55, Q 3.35, R 3.18, D 4.52, Y 2.44, I 3.11, F 3.15, A 3.65, E 3.88, N 2.94, T 3.58
Q18: A 3.26, L 2.4, T 2.31, H 1.91, C 2.52, F 1.79, W 1.75, S 2.44, P 3.1, K 3.27, I 1.82, G 3.47, N 2.77, V 2.01, Y 1.47, R 2.42, D 2.89, E 3.22, M 2.36
N11: M 1.05, Y 2.06, I 1.14, L 2.98, H 2.12, P 2.91, K 4.01, T 2.44, D 2.84, G 2.96, S 2.42, Q 2.6, F 1.89, V 1.96, A 1.54, E 2.19, W 1.01, C 1.74
S15: F 1.04, A 3.65, R 3.67, W 2.75, N 3.79, Q 3.11, T 3.02, C 2.82, K 3.19, H 2.71, D 4.08, Y 2.06, L 1.69, V 1.91, P 3.15, M 1.16, E 3.74, G 2.92, I 1.36
V17: F 2.56, E 3.88, H 4.4, I 1.92, Y 2.87, A 4.27, N 3.56, Q 4.07, D 3.87, R 3.83, T 4.09, M 2.37, G 4.45, W 2.1, K 4.41, S 4.35, C 3.48, P 3.71, L 2.29
V14: A 3.63, L 2.78, E 4.28, P 3.96, F 2.57, C 2.64, D 4.33, G 3.54, H 3.94, S 3.49, T 3.95, Y 2.73, W 2.14, Q 4.25, N 4.23, I 2.68, R 3.89, K 3.53
E21: S 2.54, Q 3.02, G 3.58, N 3.51, R 3.53, P 3.38, K 2.94, W 2.05, T 2.34, I 2.28, D 3.19, Y 1.77, V 2.82, C 3.27, F 1.87, M 2.4, L 2.7, A 2.58, H 2.88
I12: R 4.29, G 3.73, T 3.88, V 2.99, L 3.06, W 2.39, A 3.77, E 4, Y 3.15, P 3.55, H 3.41, N 4.8, S 3.95, C 3.53, D 3.08, Q 4.35, K 4.16, M 3.13, F 2.23
S23: M 2.81, T 3.17, E 2.91, H 3.24, F 2.42, L 3.03, C 2.9, V 2.63, K 4.04, I 2.88, Q 3.55, A 3.14, W 2.53, P 2.72, N 3.15, Y 2.51

Variants of: B2
Experiment: as above
Conditions: c terminus: a fixed tail appended

Protein stability index, by site and new letter:
L2: R 2.4, V 1.91, E 1.68, F 1.71, Q 2.03, P 2.68, M 1.96, Y 1.85, I 1.66, C 1.82, N 2.38, D 1.73, A 2.19, S 1.91, G 3.19, T 2.08, K 2.11, H 1.75, W 2.02
F1: C 1.9, R 2.79, H 2.5, N 3.17, Q 2.23, V 2.62, M 2.39, E 2.45, K 2.41, L 2.36, W 1.85, S 2.51, Y 2.04, P 2.78, T 2.72, I 2.51, A 2.35, G 2.26, D 2.49
A3: P 2.17, F 2.02, S 2.5, G 1.87, E 2.42, M 1.72, V 1.88, Q 1.73, D 2.38, W 1.5, T 2, I 1.87, H 2.1, N 1.88, C 1.36, R 2.56, L 2.33, K 2.13
